# Test results as given in patent publication USRE50178 (CELLTECH R AND D, dated 2024).
# Target: T1, CD3 antigen (human, UniProt P07766 23-207)
# T1 construct: whole, on cells; also called OKT3 antigen; antigen in the T-cell receptor-CD3 complex
# Assay: competition with Fl-OKT3 on HPB-ALL cells, flow cytometry
binder,measurement,value
"OKT3 gL221 / gH341 (JA178), basic grafted product (antibody, human IgG4, V domains shown, Human IgG4 and human kappa constant regions; also called minimally grafted OKT3 antibody) VH: QVQLVESGGGVVQPGRSLRLSCSSSGYTFTRYTMHWVRQAPGKGLEWVAYINPSRGYTNYNQKFKDRFTISRDNSKNTLFLQMDSLRPEDTGVYFCARYYDDHYCLDYWGQGTTLTVSS VL: DIQMTQSPSSLSASVGDRVTITCSASSSVSYMNWYQQTPGKAPKLLIYDTSKLASGVPSRFSGSGSGTDYTFTISSLQPEDIATYYCQQWSSNPFTFGQGTKLQITR",binding result,no binding
